Assay results as given in patent US10391150B2, “Treatments for migraine and related disorders” (The University of Chicago, priority 2011, dated 2019).
“Also recorded” adds a separate entry of the source.

Tests used:
glutathione = assay: Slice culture glutathione by Thiol Tracker; type: cell-based, rat; conditions: pulsed exposure to IFN-γ or exosomes from IFN-γ-pulsed slice cultures
From the text: FIGS. 17A-17B. Detection of an IFN-γ-induced rise in slice culture glutathione using Thiol Tracker™, a fluorescent indicator of glutathione. […] (FIG. 17B) Furthermore, this increase is significant (p<0.001; n≥5/group) and can be mimicked by exposure to exosomes isolated from slice cultures activated by pulsed-exposure to IFN-γ.
Since stimulated immune cells release exosomes that are capable of reducing OS in recipient cells, the inventors next tested whether IFN-γ stimulated slice cultures (and possibly their microglia) to release exosomes that mimicked the effects of IFN-γ. […] IFN-γ, when pulsed onto slice cultures for 12 hours triggers the release of nutritive exosomes that mimic the effect of pulsed exposure to IFN-γ (16, 17). Since pulsed-exposure to IFN-γ reduces OS and glutathione is a naturally occurring inhibitor of neutral sphingomyelinase, the inventors probed for an IFN-γ-induced rise in slice culture glutathione using Thiol Tracker™, a fluorescent indicator of glutathione (FIG. 17).

[1] = system: myelin basic protein (MBP); assay: Myelin basic protein (MBP) Western blot in hippocampal slice cultures; type: cell-based, rat
Description: FIGS. 14A-14C. Reduced myelin basic protein (MBP) from SD depends on IFN-γ/T-cell activation and sphingomylinase. […] Thus, confirming involvement of T cells.
FIGS. 15A-15C. Physiological and transient elevation [i.e., phasic (see FIG. 1)] of IFN-γ triggers completely opposite effects. Transient (i.e., 500 U/mL×12 hours; all groups n≥5) exposure of hippocampal slice cultures was nutritive when assessed seven days later.

B1: Interferon-gamma (protein, listed as Homo sapiens)
chain: MKYTSYILAFQLCIVLGSLGCYCQDPYVKEAENLKKYFNAGHSDVADNGTLFLGILKNWKEESDRKIMQSQIVSFYFKLFKNFKDDQSIQKSVETIKEDMNVKFFNSNKKKRDDFEKLTNYSVTDLNVQRKAIHELIQVMAELSPAAKTGKRKRSQMLFRGRRASQ
slice culture / microglial glutathione (glutathione): selectively increases microglial glutathione
MBP levels ([1]; IFN-γ with co-administration of TNF-α (100 ng/mL)): further decline in MBP
MBP levels ([1]; chronically applied IFN-γ 500 U/mL × 24 hours): reduce MBP levels
MBP versus baseline ([1]; transient (pulsed) IFN-γ 500 U/mL × 12 hours, assessed seven days later): MBP rises above baseline; also recorded: increased above baseline
